The record followed here is patent US20180265843A1, “METHOD AND MEDIUM FOR NEURAL DIFFERENTIATION OF PLURIPOTENT CELLS” (INSERM 9INSTITUT NATIONAL DE LA SANTÉ ET DE LA RECHERCHE …, priority 2009, published 2018).

Experiment [1] relates to hES cells. Nature of the experiment: FACS analysis of culture composition after differentiation with Noggin, SB431542 or both (NFS). In kind it is cell-based, human. The conditions noted are these: for differentiation of hES cells into an alternative fate than the neural lineage: 8 days treatment in N2B27; for proportion of neural cells, in words: 8 days treatment in N2B27, FACS. The text has this: A—FACS analyses of the composition of the whole culture after 8 days of differentiation in N2B27 alone or completed with Noggin, SB431542 or both (NFS). B—QPCR quantification of transcript specific of ES cells (Oct4 and Nanog) and early neural precursors (PAX6 and SOX1) for each condition of differentiation.
(§1) Human ES cell cultures or IFS cultures reaching 70-80% confluence were used to perform neural induction using NFS medium. Colonies were cut in pieces and manually detached in N2B27 or NFS medium completed with the Rock-inhibitor Y27632 (10 μM, Calbiochem). Clusters were transferred for 6 h in a low attachment Petri dish in order to completely starve them from the influence of the feeders. Finally, the hES or IFS suspension was plated in the same medium at a 1:1 ratio in culture dishes pre-coated with poly-ornithin and laminin (2 μg/ml, Sigma). The day after and then every other day, the medium was changed for NFS medium without Y27632.
Cells were collected using trypsin and fixed with 2% PFA for 15 min at 4° C. Permeabilization was performed using a PBS/0.1% saponin solution 10 min at RT. The same solution was then used to dilute primary antibodies as followed: mouse monoclonal OCT4 antibody linked to phycoerythrin (oct4-PE, 1:10°, BD Biosciences) and polyclonal rabbit anti-SOX2 antibody (1:500°, Chemicon). Cells were exposed to the mixture of primary antibodies 45 min at RT. An additional incubation with anti-rabbit secondary antibodies linked to AlexaFluo 488 was performed during 30 min at RT in order to detect SOX2 unconjugated antibodies. FACS analysis was performed using a Becton Dickinson FACScalibur™ flow cytometer.
We first monitored the efficiency of neural differentiation obtained only by removing from the culture medium any known instructive signals for alternative cell fates. We used N2B27 medium, a defined medium previously developed to induce neural differentiation of both mouse and human embryonic stem cells in an adherent monolayer culture system (Ying et al., 2003; Lowell et al., 2006). In order to analyzed consistently differentiation of several naïve hES cell lines, we have develop a protocol of systematic counting where cells were stained using antibodies against OCT4 and SOX2 transcription factors and then, analysed using FACS technology. Cells expressing both OCT4 and SOX2 were considered as embryonic stem cells whereas cells expressing only SOX2 were counted as neural cells. Cells totally negative or expressing only OCT4 were designated as differentiated into other type of tissues or layers. FACS analysis was performed on 4 hES cell lines (Hues 24, H9, VUB01, SA01), 8 days after platting on laminin in N2B27. Neural differentiation was obtained with all cell lines, but the efficiency of differentiation appeared highly variable depending of the cell line used, ranging from 33.84% for SA01 line to 82.33% for VUB01 line (FIG. 1-A).

Experiment [2] concerns hES cells. As to the kind of experiment: Real-time qPCR of lineage marker transcripts after differentiation. In kind it is cell-based, human. To be noted: for expression of early neural markers PAX6 and SOX1: 8 days treatment in N2B27, qPCR; for neural crest cells (PAX3+/SOX10+) and keratinocytes (Cytokeratins 8 and 18), alternative fates from primitive ectoderm: 8 days treatment, qPCR and ICC. The protocol: as §1
Total RNA was isolated using the RNeasy Mini Kit (Qiagen) according to the manufacturer's instructions. A total of 500 ng of RNA were reverse transcribed into cDNA with SuperScript III (Invitrogen) using random primers. Real-time Q-PCR was performed with SYBR Green as a probe on a LC480 Real-Time system (Roche). Quantification was performed at a threshold detection line (Ct value). The Ct of each target gene was normalized against that of the cyclophilin as a housekeeping gene. The 2-ΔΔCt method was used to determine the relative level of expression of each gene. Data were expressed as mean±SEM. Primer sequences are listed in follow.
(In qPCR the cycle at which signal appears reflects the starting amount.)

Where [3] appears, read: 8 days of differentiation, qPCR.

With `NC(=O)c1ccc(-c2nc(-c3ccc4c(c3)OCO4)c(-c3ccccn3)[nH]2)cc1` [SB431542, 4-(5-Benzol[1,3]dioxol-5-yl-4-pyrlidn-2-yl-1H-imidazol-2-yl)-benzamide hydrate, reference compound], in the experiment on hES cells [1], the “differentiation of hES cells into an alternative fate than the neural lineage” value is on record as “drastic differentiation of ES into an alternative fate” and the “proportion of neural cells, in words” value is listed as “didn't increase robustly”. Also, in the experiment with hES cells [2] (setting [3]), the “markers of primitive endoderm (SOX17, FOXA1) and primitive mesoderm (Brachyury, FLK1)” value is on record as “not detected”. Also, in the experiment with hES cells [2], the “expression of early neural markers PAX6 and SOX1” value is reported as “didn't increase robustly”; the “neural crest cells (PAX3+/SOX10+) and keratinocytes (Cytokeratins 8 and 18), alternative fates from primitive ectoderm” value is given as “detected”.

B1: Noggin: natural inhibitor of the BMP pathway; recombinant noggin from R&D Systems or Preprotech (protein, UniProt Q13253 28-232, looked up)
Noggin: QHYLHIRPAPSDNLPLVDLIEHPDPIFDPKEKDLNETLLRSLLGGHYDPGFMATSPPEDRPGGGGGAAGGAEDLAELDQLLRQRPSGAMPSEIKGLEFSEGLAQGKKQRLSKKLRRKLQMWLWSQTFCPVLYAWNDLGSRFWPRYVKVGSCFSKRSCSVPEGMVCKPSKSVHLTVLRWRCQRRGGQRCGWIPIQYPIISECKCSC
B1: in the experiment on hES cells [1], the “differentiation of hES cells into an alternative fate than the neural lineage” value is given as “complete blockage” and the “proportion of neural cells, in words” value is “slight increased”. For the same molecule, the “ES cells expressing Oct4 and NANOG remaining in the culture” value with hES cells [1] (after 8 days of treatment) is listed as “a large number of ES cells”. Further, in the experiment with hES cells [2] (setting [3]), the “markers of primitive endoderm (SOX17, FOXA1) and primitive mesoderm (Brachyury, FLK1)” value is given as “not detected”; the “transcripts of extra-embryonic tissue markers CDX2 and Eomes” value is recorded as “not detected”. In the experiment with hES cells [2], the “expression of early neural markers PAX6 and SOX1” value was “slight increased”; the “neural crest cells (PAX3+/SOX10+) and keratinocytes (Cytokeratins 8 and 18), alternative fates from primitive ectoderm” value is given as “not detected”.
